# Data as given in IntAct's records for PubMed 17377532.
# B1: Forkhead box protein P3 (Mus musculus), Q99JB6 (parent)
# chain: MPNPRPAKPMAPSLALGPSPGVLPSWKTAPKGSELLGTRGSGGPFQGRDLRSGAHTSSSLNPLPPSQLQLPTVPLVMVAPSGARLGPSPHLQALLQDRPHFMHQLSTVDAHAQTPVLQVRPLDNPAMISLPPPSAATGVFSLKARPGLPPGINVASLEWVSREPALLCTFPRSGTPRKDSNLLAAPQGSYPLLANGVCKWPGCEKVFEEPEEFLKHCQADHLLDEKGKAQCLLQREVVQSLEQQLELEKEKLGAMQAHLAGKMALAKAPSVASMDKSSCCIVATSTQGSVLPAWSAPREAPDGGLFAVRRHLWGSHGNSSFPEFFHNMDYFKYHNMRPPFTYATLIRWAILEAPERQRTLNEIYHWFTRMFAYFRNHPATWKNAIRHNLSLHKCFVRVESEKGAVWTVDEFEFRKKRSQRPNKCSNPCP
# Variants of: B1
# Conditions: with runx1_mouse Runx1, Q03347
# Chain of runx1_mouse Runx1, Q03347 (Q03347 whole entry): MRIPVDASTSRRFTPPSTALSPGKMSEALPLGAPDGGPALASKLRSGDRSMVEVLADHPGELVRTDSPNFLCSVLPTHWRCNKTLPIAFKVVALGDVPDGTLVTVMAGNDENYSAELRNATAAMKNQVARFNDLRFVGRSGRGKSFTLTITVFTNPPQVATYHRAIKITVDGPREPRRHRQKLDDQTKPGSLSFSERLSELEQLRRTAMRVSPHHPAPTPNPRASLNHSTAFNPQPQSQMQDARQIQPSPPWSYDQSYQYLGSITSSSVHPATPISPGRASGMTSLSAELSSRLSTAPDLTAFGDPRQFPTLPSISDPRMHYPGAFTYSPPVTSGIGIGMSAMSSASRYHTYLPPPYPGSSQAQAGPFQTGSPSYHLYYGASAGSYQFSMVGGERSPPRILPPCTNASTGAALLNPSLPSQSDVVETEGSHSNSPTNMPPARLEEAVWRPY
row,Variant,effect of a mutation on the interaction
1,D329V;Y330H;K332L,disrupting interaction strength
2,D329V;Y330H,decreasing interaction strength
